The nature of the data set: protein stability index of a GFP-peptide fusion (GPS, HEK-293T) (PSI 1-6); higher = more stable. Particulars: c terminus: native.
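Note: lentivirally expressed fusion library, cells FACS-sorted into six equal-sized GFP/DsRed ratio bins, PSI computed from sequencing read fractions per bin weighted by bin number.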

B1: POLD2 addQ (peptide)
chain: CQPISFSGFGAEDDDLGGLGLGPQ
Regarding B1, the protein stability index (parent: NP_006221.1) came to 2.97.

B2: SNF8 addQ (peptide)
chain: LPALFTDLYSQEITAEEAREALPQ
Take B2: the protein stability index (parent: NP_009172.2) came to 5.05.

B3: TRPA1 addQ (peptide)
chain: EQRNSRWNTVLRAVKAKTHHLEPQ
B3: the protein stability index (parent: NP_015628.1) was 4.94.

B4: PSMB5 addQ (peptide)
chain: DGWIRVSSDNVADLHEKYSGSTPQ
On to B4, for which the protein stability index (parent: NP_002788.1) was 3.53.

For the origin of these results see the supplement of paper PMC10567573.
